From paper PMC11046469, “Leveraging a Phage-Encoded Noncanonical Amino Acid: A Novel Pathway to Potent and Selective Epigenetic Reader Protein Inhibitors” (ACS Central Science, 2024)
Where a SMILES comes first, the peptide text is derived from it. The star is where a group is joined. FITC = O=C1OC2(c3ccc(O)cc3Oc3cc(O)ccc32)c2ccc(NC(=S)*)cc21; Oxazole(5-CO) = O=C(c1cnco1)*; Ahx = NCCCCCC(=O)O

What was measured:
MV4-11 cells = format: cell-based
From the text: (§1) For peptides developed for intracellular targets, a common concern is their cellular permeability to engage the targets. For the ENL YEATS domain that is a nuclear protein, its inhibitors will also need to translocate to the nucleus to exert their inhibition activities. […] We attached FITC to tENL-S1o to afford FITC-tENL-S1o that could be fluorescently imaged. […] Although results from this pilot study were very encouraging, the conjugated FITC could have assisted the cellular penetration process. A more accurate assay was needed for the use of unmodified peptides. […] There are three components required to gauge the peptide inhibitory potency for ENL expressed in cells through NanoBRET assays: (1) an ENL YEATS-NanoLuc luciferase fusion protein, (2) a NanoLuc luciferase substrate, and (3) a fluorescent tracer that binds specifically and reversibly to the reader channel of ENL YEATS. […] The cellular potency of peptides can be determined through the decrease in BRET as test peptides engage the ENL YEATS domain and displace the tracer. […]
(§2) Fluorescence microscopy study with FITC-6AHX-tENL-S1o: […]
(§3) Cell proliferation assays were performed in 96-well tissue culture plates (Corning). […] Cell numbers were determined every 3–4 days using the Countess automated cell counter (Invitrogen). […]

MOLM-13 cells = format: cell-based
From the text: as §1, §2, §3

ENL YEATS (His-ENL) = biological target: T1, ENL YEATS (His-ENL) (Homo sapiens, UniProt Q03111); assay: Fluorescence polarization binding of tracer to ENL YEATS
T1 construct: (aa 1−148) was cloned in pET19b; made in house; host or cells: E. coli BL21(DE3pLysS)
T1 sequence (Q03111 1-148): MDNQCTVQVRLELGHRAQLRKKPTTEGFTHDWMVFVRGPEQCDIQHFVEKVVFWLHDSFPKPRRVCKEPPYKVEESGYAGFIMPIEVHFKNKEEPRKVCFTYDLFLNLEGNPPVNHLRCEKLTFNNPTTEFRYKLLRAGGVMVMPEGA
Method: Meanwhile, we established a stable cell line for NanoLuc-ENL YEATS expression. The binding of SR-0813T to […] was also validated using a fluorescence polarization assay (Figure S16).
Fluorescence Polarization:
Tracer 1 (10 nM) and varying concentrations of His-ENL (14 nM to 7.2 µM) were mixed in a 200 µL of assay buffer (50 mM HEPES, 100 mM NaCl, 0.01% Tween20, pH: 7.4). The solutions were incubated in black 96-well plates and then measured fluorescence polarization in a microplate reader at Ex/Em = 530 nm/590 nm.
NanoBRET Assay to Validate ENL Inhibitors:
HEK293T/17 cells harboring pCDH-EF1-Nluc-ENL were cultivated in growth medium overnight at 37 °C and 5% CO2. […] Following a quick spin (100 rcf, 1 min), a plate reader equipped with the LUM 610 LP 450 module was used to measure the emissions at 450 nm (donor) […]
The final BRET ratio was calculated by dividing the acceptor emission (610 nm) by the donor emission (450 nm). The BRET ratio was calculated using the following equation: […]
MOLM-13 cells were incubated with test compound (tENL-S1f at a final concentration of 10 and 50 μM) and control (DMSO at a final concentration of 0.1%) for 24 hours. […] Quantitative real-time PCR (qRT-PCR) analyses were performed in triplicate using SYBR Select Master Mix (Applied Biosystems) […]
Gene expressions were calculated following normalization to B2M levels using the comparative C t (cycle threshold) method. […]

SMILES	cellular fluorescence (cell penetration) (MV4-11 cells)	cellular fluorescence (cell penetration) (MOLM-13 cells)	Kd (ENL YEATS (His-ENL))
CC(C)[C@H](NC(=O)CCCCCNC(=S)Nc1ccc2c(c1)C(=O)OC21c2ccc(O)cc2Oc2cc(O)ccc21)C(=O)N[C@@H](Cc1ccc(O)cc1)C(=O)N[C@@H](CS)C(=O)N[C@@H](Cc1ccc(O)cc1)C(=O)N[C@@H](CCCCNC(=O)c1cnco1)C(N)=O [FITC-tENL-S1o] ({FITC-Ahx}-VYCYK(Oxazole(5-CO))-NH2)	strong fluorescence within the cells	strong fluorescence within the cells	–
O=C(CCC1=[N+]2C(=Cc3ccc(-c4ccc[nH]4)n3[B-]2(F)F)C=C1)NCCCC(=O)Nc1cccc(-c2cn3cc(C(=O)NC4CCC4)ccc3n2)c1 [SR-0813T]	–	–	1100 nM
